Measurements from US20040077542A1 (University of Texas, published 2004).

Target: T1, GST-fusion protein of the second BIR (baculoviral IAP repeat) motif of XIAP (UniProt P98170 124-240)
T1 construct: also called recombinant IAP fragment; BIR2; not shown: glutathione S-transferase (GST) fusion partner; order of GST and BIR2 not
Experiment: GST pull-down, radiolabeled peptide on GST-BIR2 glutathione resin (Example 9)

T1 sequence (P98170 124-240): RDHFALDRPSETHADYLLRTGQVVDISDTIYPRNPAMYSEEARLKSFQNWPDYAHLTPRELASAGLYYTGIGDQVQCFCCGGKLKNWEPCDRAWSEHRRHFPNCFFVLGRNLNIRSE

Binder: H-KQAIPVA-OH (also called negative control Smac-7R) [Smac-7R: NH2-KQAIPVA-COOH]
- binding result: no binding
